{
  "source": "patent US20040253629A1",
  "about": "(Stanford University, published 2004)",
  "binders": {"B1": {"name": "Bok-S (short splicing variant of Bok, rat) (other)", "chain": "MEVLRRSSVFAAEIMDAFDRSPTDKELVAQAKALGREYVHARLLRAGLSWSAPERASPAPGGRLAEVCTVLLRLGITWGKVVSLYSVAAGLAVDCVRQAQPAMVHALVDCLGEFVRKTLATWLRRRGGWTDVLKCVVSTDPGFRSHWLVATLCSFGRFLKAAFFLLLPER", "notes": "also called truncated Bok"}, "B2": {"name": "Bok-L (Bcl-2-related ovarian killer, long form, rat) (other)", "chain": "MEVLRRSSVFAAEIMDAFDRSPTDKELVAQAKALGREYVHARLLRAGLSWSAPERASPAPGGRLAEVCTVLLRLGDELEQIRPSVYRNVARQLHIPLQSEPVVTDAFLAVAGHIFSAGITWGKVVSLYSVAAGLAVDCVRQAQPAMVHALVDCLGEFVRKTLATWLRRRGGWTDVLKCVVSTDPGFRSHWLVATLCSFGRFLKAAFFLLLPER", "notes": "also called full-length Bok protein"}, "B3": {"name": "BHRF1 (other)", "chain": "MAYSTREILLALCIRDSRVHGNGTLHPVLELAARETPLRLSPEDTVVLRYHVLLEEIIERNSETFTETWNRFITHTEHVDLDFNSVFLEIFHRGDPSLGRALAWMAWCMHACRTLCCNQSTPYYVVDLSVRGMLEASEGLDGWIHQQGGWSTLIEDNIPGSRRFSWTLFLAGLTLSLLVICSYLFISRGRH"}, "B4": {"name": "BokAAA (Bok-L 75 AAA 77) (other)", "chain": "MEVLRRSSVFAAEIMDAFDRSPTDKELVAQAKALGREYVHARLLRAGLSWSAPERASPAPGGRLAEVCTVLLRLAAALEQIRPSVYRNVARQLHIPLQSEPVVTDAFLAVAGHIFSAGITWGKVVSLYSVAAGLAVDCVRQAQPAMVHALVDCLGEFVRKTLATWLRRRGGWTDVLKCVVSTDPGFRSHWLVATLCSFGRFLKAAFFLLLPER", "notes": "also called BokAAA: 75 AAA 77"}, "B5": {"name": "BokADE (Bok-L G75A) (other)", "chain": "MEVLRRSSVFAAEIMDAFDRSPTDKELVAQAKALGREYVHARLLRAGLSWSAPERASPAPGGRLAEVCTVLLRLADELEQIRPSVYRNVARQLHIPLQSEPVVTDAFLAVAGHIFSAGITWGKVVSLYSVAAGLAVDCVRQAQPAMVHALVDCLGEFVRKTLATWLRRRGGWTDVLKCVVSTDPGFRSHWLVATLCSFGRFLKAAFFLLLPER", "notes": "also called BokADE: G 75 A"}, "B6": {"name": "BokGGGG (Bok-L 71 LLRL 74 to 71 GGGG 74) (other)", "chain": "MEVLRRSSVFAAEIMDAFDRSPTDKELVAQAKALGREYVHARLLRAGLSWSAPERASPAPGGRLAEVCTVGGGGGDELEQIRPSVYRNVARQLHIPLQSEPVVTDAFLAVAGHIFSAGITWGKVVSLYSVAAGLAVDCVRQAQPAMVHALVDCLGEFVRKTLATWLRRRGGWTDVLKCVVSTDPGFRSHWLVATLCSFGRFLKAAFFLLLPER", "notes": "also called BokGGGG mutant"}},
  "key": {"Mcl-1 (rat) [1]": {"target": "T1, Mcl-1 (rat) (rat, UniProt Q9Z1P3 1-330)", "T1 sequence (Q9Z1P3 whole entry, the tested form may be a part)": "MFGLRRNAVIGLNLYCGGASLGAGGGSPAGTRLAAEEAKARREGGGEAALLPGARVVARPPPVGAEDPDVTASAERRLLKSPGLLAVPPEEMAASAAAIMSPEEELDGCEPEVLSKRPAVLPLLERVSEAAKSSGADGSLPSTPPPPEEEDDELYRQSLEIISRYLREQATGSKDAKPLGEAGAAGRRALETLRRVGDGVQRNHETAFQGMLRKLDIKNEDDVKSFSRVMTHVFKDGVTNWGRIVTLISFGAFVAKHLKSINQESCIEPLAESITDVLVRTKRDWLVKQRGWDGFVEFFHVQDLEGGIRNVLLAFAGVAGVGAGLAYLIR", "assay": "yeast two-hybrid, Bok-S-GAL4-AD vs GAL4-BD fusion"}, "BHRF1": {"target": "B3", "assay": "yeast two-hybrid, Bok-S-GAL4-AD vs GAL4-BD fusion"}, "Mcl-1 (rat) [2]": {"target": "T1, Mcl-1 (rat)", "assay": "yeast two-hybrid, yeast cell growth grade (++ prominent, + moderate)", "experimental": "(§1) Specific binding of different protein pairs was evaluated based on the activation of GAL1-HIS3 and GAL4-lacZ reporter genes."}, "[3]": {"target": "B2", "assay": "yeast two-hybrid, yeast cell growth grade (++ prominent, + moderate)", "experimental": "as §1"}, "Mcl-1 (rat) [4]": {"target": "T1, Mcl-1 (rat)", "assay": "yeast two-hybrid, mutant Bok-L-GAL4-AD vs GAL4-BD fusion", "experimental": "Yeast two-hybrid assay. […] After transformation of yeast cells, colonies containing different protein pairs were selected on plates lacking tryptophan and leucine. To test for specific protein-protein interactions, positive transformants were further selected for growth in media deficient for tryptophan, leucine and histidine but containing 5-30 mM 3-aminotriazole to inhibit endogenous histidine production. A minimum of five independent transformants containing each pair of fusion cDNAs was routinely analyzed.\nThe mutants included alanine substitutions at the highly conserved glycine 75 or glycine 75 plus flanking aspartic acid 76 and glutamic acid 77 (BokADE: G 75 A and BokAAA: 75 AAA 77). In addition, a glycine substitution was made for leucine 71 to leucine 74 (BokGGGG: 71 LLRL 74 to 71 GGGG 74)."}},
  "data": [
    {"binder": "B1", "values": [
      {"measurement": "binding result", "setting": "Mcl-1 (rat) [1]", "result": "no binding"},
      {"measurement": "binding result", "setting": "BHRF1", "result": "no binding"}
    ]},
    {"binder": "B2", "values": [
      {"measurement": "binding result", "setting": "Mcl-1 (rat) [2]", "result": "binds"}
    ]},
    {"binder": "B3", "values": [
      {"measurement": "binding result", "setting": "[3]", "result": "binds"}
    ]},
    {"binder": "B4", "values": [
      {"measurement": "binding result", "setting": "Mcl-1 (rat) [4]", "result": "no binding"}
    ]},
    {"binder": "B5", "values": [
      {"measurement": "binding result", "setting": "Mcl-1 (rat) [4]", "result": "no binding"}
    ]},
    {"binder": "B6", "values": [
      {"measurement": "binding result", "setting": "Mcl-1 (rat) [4]", "result": "no binding"}
    ]}
  ]
}
